Measured values as given in the supplement of paper PMC10567573.

B1: RHOBTB2 (parent)
chain: NQEITKAFHVRRTNRVKECLAKGT

Variants of: B1
Test: protein stability index of a GFP-peptide fusion (GPS, HEK-293T) (PSI 1-6); higher = more stable
Conditions: c terminus: a fixed tail appended
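Further: lentivirally expressed fusions sorted by FACS into six bins by GFP to DsRed ratio, PSI derived from sequencing read proportions per bin multiplied by bin number.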

Variant	protein stability index
NQEITKAFHVRRTNAVKECLAKGT [R15A]	3.66
NQEITKAFHVRRTNDVKECLAKGT [R15D]	4.21
NQEITKAFHVRRTNCVKECLAKGT [R15C]	3.27
NQEITKAFHVRRTNFVKECLAKGT [R15F]	2.84
NQEIQKAFHVRRTNRVKECLAKGT [T5Q]	4.06
NQEIDKAFHVRRTNRVKECLAKGT [T5D]	3.84
NQEIVKAFHVRRTNRVKECLAKGT [T5V]	3.51
NQEICKAFHVRRTNRVKECLAKGT [T5C]	2.04
NQEILKAFHVRRTNRVKECLAKGT [T5L]	2.86
NQEIFKAFHVRRTNRVKECLAKGT [T5F]	2.67
NQEIRKAFHVRRTNRVKECLAKGT [T5R]	3.7
NQEIMKAFHVRRTNRVKECLAKGT [T5M]	3.42
NQEIHKAFHVRRTNRVKECLAKGT [T5H]	4.29
NQEIYKAFHVRRTNRVKECLAKGT [T5Y]	3.46
NQEIKKAFHVRRTNRVKECLAKGT [T5K]	4.06
NQEIEKAFHVRRTNRVKECLAKGT [T5E]	4.16
NQEIPKAFHVRRTNRVKECLAKGT [T5P]	3.88
NQEIWKAFHVRRTNRVKECLAKGT [T5W]	3
NQEIIKAFHVRRTNRVKECLAKGT [T5I]	4.04
NQEIGKAFHVRRTNRVKECLAKGT [T5G]	2.21
NQEISKAFHVRRTNRVKECLAKGT [T5S]	3.48
NQEINKAFHVRRTNRVKECLAKGT [T5N]	3.22
NQEIAKAFHVRRTNRVKECLAKGT [T5A]	3.75
NQEITKAFHNRRTNRVKECLAKGT [V10N]	3.92

Variant	protein stability index
NQEITKAFHWRRTNRVKECLAKGT [V10W]	3.35
NQEITKAFHARRTNRVKECLAKGT [V10A]	4.09
NQEITKAFHIRRTNRVKECLAKGT [V10I]	3.25
NQEITKAFHQRRTNRVKECLAKGT [V10Q]	3.84
NQEITKAFHKRRTNRVKECLAKGT [V10K]	4.42
NQEITKAFHYRRTNRVKECLAKGT [V10Y]	3.78
NQEITKAFHHRRTNRVKECLAKGT [V10H]	4.46
NQEITKAFHDRRTNRVKECLAKGT [V10D]	4.25
NQEITKAFHPRRTNRVKECLAKGT [V10P]	4.01
NQEITKAFHCRRTNRVKECLAKGT [V10C]	3.62
NQEITKAFHERRTNRVKECLAKGT [V10E]	4.71
NQEITKAFHGRRTNRVKECLAKGT [V10G]	3.46
NQEITKAFHTRRTNRVKECLAKGT [V10T]	4.3
NQEITKAFHRRRTNRVKECLAKGT [V10R]	3.91
NQEITKAFHLRRTNRVKECLAKGT [V10L]	3.08
NQEITKAFHFRRTNRVKECLAKGT [V10F]	3.39
NQEITKAFHVRRTCRVKECLAKGT [N14C]	1.88
NQEITKAFHVRRTHRVKECLAKGT [N14H]	3.43
NQEITKAFHVRRTQRVKECLAKGT [N14Q]	3.09
NQEITKAFHVRRTGRVKECLAKGT [N14G]	3.17
NQEITKAFHVRRTIRVKECLAKGT [N14I]	3.58
NQEITKAFHVRRTTRVKECLAKGT [N14T]	2.95
NQEITKAFHVRRTDRVKECLAKGT [N14D]	3.82
NQEITKAFHVRRTLRVKECLAKGT [N14L]	3.09

Variant	protein stability index
NQEITKAFHVRRTRRVKECLAKGT [N14R]	2.97
NQEITKAFHVRRTSRVKECLAKGT [N14S]	2.48
NQEITKAFHVRRTMRVKECLAKGT [N14M]	2.54
NQEITKAFHVRRTPRVKECLAKGT [N14P]	3.38
NQEITKAFHVRRTVRVKECLAKGT [N14V]	2.83
NQEITKAFHVRRTARVKECLAKGT [N14A]	4.05
NQEITKAFHVRRTKRVKECLAKGT [N14K]	3.15
NQEITKAFHVRRTYRVKECLAKGT [N14Y]	1.82
NQEITKAFHVRRTFRVKECLAKGT [N14F]	2.15
NQEITKAFHVRRTWRVKECLAKGT [N14W]	2.15
NQEITKAFHVRRTERVKECLAKGT [N14E]	4.4
NQEITKAFHVRRENRVKECLAKGT [T13E]	3.97
NQEITKAFHVRRINRVKECLAKGT [T13I]	2.1
NQEITKAFHVRRKNRVKECLAKGT [T13K]	2.79
NQEITKAFHVRRSNRVKECLAKGT [T13S]	3.96
NQEITKAFHVRRCNRVKECLAKGT [T13C]	2.78
NQEITKAFHVRRLNRVKECLAKGT [T13L]	3.32
NQEITKAFHVRRPNRVKECLAKGT [T13P]	3.98
NQEITKAFHVRRYNRVKECLAKGT [T13Y]	1.78
NQEITKAFHVRRHNRVKECLAKGT [T13H]	3.36
NQEITKAFHVRRGNRVKECLAKGT [T13G]	2.49
NQEITKAFHVRRMNRVKECLAKGT [T13M]	3.57
NQEITKAFHVRRQNRVKECLAKGT [T13Q]	3.93
NQEITKAFHVRRDNRVKECLAKGT [T13D]	4.09

Variant	protein stability index
NQEITKAFHVRRNNRVKECLAKGT [T13N]	3.54
NQEITKAFHVRRWNRVKECLAKGT [T13W]	2.02
NQEITKAFHVRRANRVKECLAKGT [T13A]	3.72
NQEITKAQHVRRTNRVKECLAKGT [F8Q]	4.48
NQEITKAHHVRRTNRVKECLAKGT [F8H]	4.73
NQEITKASHVRRTNRVKECLAKGT [F8S]	4.87
NQEITKATHVRRTNRVKECLAKGT [F8T]	4.5
NQEITKACHVRRTNRVKECLAKGT [F8C]	4.96
NQEITKAEHVRRTNRVKECLAKGT [F8E]	4.62
NQEITKAYHVRRTNRVKECLAKGT [F8Y]	3.37
NQEITKAGHVRRTNRVKECLAKGT [F8G]	4.63
NQEITKAMHVRRTNRVKECLAKGT [F8M]	4.77
NQEITKARHVRRTNRVKECLAKGT [F8R]	4.67
NQEITKAIHVRRTNRVKECLAKGT [F8I]	4.37
NQEITKAPHVRRTNRVKECLAKGT [F8P]	4.53
NQEITKADHVRRTNRVKECLAKGT [F8D]	4.67
NQEITKAWHVRRTNRVKECLAKGT [F8W]	2.94
NQEITKAKHVRRTNRVKECLAKGT [F8K]	4.15
NQEITKALHVRRTNRVKECLAKGT [F8L]	3.77
NQEITKANHVRRTNRVKECLAKGT [F8N]	4.39
NQEITKAAHVRRTNRVKECLAKGT [F8A]	4.6
NQEITKAVHVRRTNRVKECLAKGT [F8V]	4.46
NQEITKLFHVRRTNRVKECLAKGT [A7L]	2.85
NQEITKQFHVRRTNRVKECLAKGT [A7Q]	3.5

Variant	protein stability index
NQEITKCFHVRRTNRVKECLAKGT [A7C]	2.94
NQEITKNFHVRRTNRVKECLAKGT [A7N]	3.2
NQEITKWFHVRRTNRVKECLAKGT [A7W]	3.34
NQEITKTFHVRRTNRVKECLAKGT [A7T]	3.11
NQEITKYFHVRRTNRVKECLAKGT [A7Y]	2.29
NQEITKDFHVRRTNRVKECLAKGT [A7D]	3.82
NQEITKHFHVRRTNRVKECLAKGT [A7H]	2.52
NQEITKVFHVRRTNRVKECLAKGT [A7V]	1.02
NQEITKEFHVRRTNRVKECLAKGT [A7E]	4.16
NQEITKMFHVRRTNRVKECLAKGT [A7M]	2.48
NQEITKPFHVRRTNRVKECLAKGT [A7P]	4.3
NQEITKKFHVRRTNRVKECLAKGT [A7K]	3.51
NQEITKRFHVRRTNRVKECLAKGT [A7R]	3.76
NQEITVAFHVRRTNRVKECLAKGT [K6V]	2.1
NQEITEAFHVRRTNRVKECLAKGT [K6E]	4.03
NQEITCAFHVRRTNRVKECLAKGT [K6C]	2.21
NQEITPAFHVRRTNRVKECLAKGT [K6P]	4.09
NQEITMAFHVRRTNRVKECLAKGT [K6M]	2.29
NQEITSAFHVRRTNRVKECLAKGT [K6S]	2.77
NQEITTAFHVRRTNRVKECLAKGT [K6T]	3.43
NQEITFAFHVRRTNRVKECLAKGT [K6F]	2.97
NQEITNAFHVRRTNRVKECLAKGT [K6N]	3.25
NQEITDAFHVRRTNRVKECLAKGT [K6D]	4
NQEITGAFHVRRTNRVKECLAKGT [K6G]	3.49

Variant	protein stability index
NQEITLAFHVRRTNRVKECLAKGT [K6L]	2.84
NQEITIAFHVRRTNRVKECLAKGT [K6I]	1.51
NQEITWAFHVRRTNRVKECLAKGT [K6W]	2.34
NQEITQAFHVRRTNRVKECLAKGT [K6Q]	3.18
NQEITRAFHVRRTNRVKECLAKGT [K6R]	2.87
NQEITYAFHVRRTNRVKECLAKGT [K6Y]	2.25
NQEITHAFHVRRTNRVKECLAKGT [K6H]	3.87
NQEWTKAFHVRRTNRVKECLAKGT [I4W]	3.21
NQEPTKAFHVRRTNRVKECLAKGT [I4P]	4.43
NQETTKAFHVRRTNRVKECLAKGT [I4T]	5.01
NQEMTKAFHVRRTNRVKECLAKGT [I4M]	4.25
NQENTKAFHVRRTNRVKECLAKGT [I4N]	3.38
NQESTKAFHVRRTNRVKECLAKGT [I4S]	4.49
NQERTKAFHVRRTNRVKECLAKGT [I4R]	3.72
NQEITKAFHVRGTNRVKECLAKGT [R12G]	4.51
NQEITKAFHVRATNRVKECLAKGT [R12A]	4.05
NQEITKAFHVRYTNRVKECLAKGT [R12Y]	2.67
NQEITKAFHVRETNRVKECLAKGT [R12E]	4.16
NQEITKAFHVRCTNRVKECLAKGT [R12C]	2.68
NQEITKAFHVRLTNRVKECLAKGT [R12L]	2.16
NQEITKAFHVRTTNRVKECLAKGT [R12T]	3.69
NQEITKAFHVRQTNRVKECLAKGT [R12Q]	3.93
NQEITKAFHVRWTNRVKECLAKGT [R12W]	2.38
NQEITKAFHVRKTNRVKECLAKGT [R12K]	4.31

Variant	protein stability index
NQEITKAFHVRITNRVKECLAKGT [R12I]	2.37
NQEITKAFHVRFTNRVKECLAKGT [R12F]	2.16
NQEITKAFHVRHTNRVKECLAKGT [R12H]	3.72
NQEITKAFHVRPTNRVKECLAKGT [R12P]	3.5
NQEITKAFHVRSTNRVKECLAKGT [R12S]	3.95
NQEITKAFHVRNTNRVKECLAKGT [R12N]	3.92
NQEITKAFHVRVTNRVKECLAKGT [R12V]	2.83
NQEITKAFHVRDTNRVKECLAKGT [R12D]	3.78
NQEITKAFHVRMTNRVKECLAKGT [R12M]	3.29
NQEITKAFHVVRTNRVKECLAKGT [R11V]	2.22
NQEITKAFHVLRTNRVKECLAKGT [R11L]	3.21
NQEITKAFHVSRTNRVKECLAKGT [R11S]	3.99
NQEITKAFHVPRTNRVKECLAKGT [R11P]	4.36
NQEITKAFHVHRTNRVKECLAKGT [R11H]	3.94
NQEITKAFHVFRTNRVKECLAKGT [R11F]	3.62
NQEITKAFHVMRTNRVKECLAKGT [R11M]	2.81
NQEITKAFHVGRTNRVKECLAKGT [R11G]	4.05
NQEITKAFHVIRTNRVKECLAKGT [R11I]	2.43
NQEITKAFHVNRTNRVKECLAKGT [R11N]	4.05
NQEITKAFHVERTNRVKECLAKGT [R11E]	4.25
NQEITKAFHVARTNRVKECLAKGT [R11A]	4.09
NQEITKAFHVQRTNRVKECLAKGT [R11Q]	4.43
NQEITKAFHVKRTNRVKECLAKGT [R11K]	3.62
NQEITKAFHVCRTNRVKECLAKGT [R11C]	3

Variant	protein stability index
NQEITKAFHVTRTNRVKECLAKGT [R11T]	3.82
NQEITKAFHVYRTNRVKECLAKGT [R11Y]	2.94
NQEITKAFHVDRTNRVKECLAKGT [R11D]	4.01
NQEITKAFHVWRTNRVKECLAKGT [R11W]	2.61
NQEITKAFDVRRTNRVKECLAKGT [H9D]	4.12
NQEITKAFNVRRTNRVKECLAKGT [H9N]	4.24
NQEITKAFCVRRTNRVKECLAKGT [H9C]	2.65
NQEITKAFWVRRTNRVKECLAKGT [H9W]	2.5
NQEITKAFTVRRTNRVKECLAKGT [H9T]	3.31
NQEITKAFEVRRTNRVKECLAKGT [H9E]	4.58
NQEITKAFMVRRTNRVKECLAKGT [H9M]	2.08
NQEITKAFVVRRTNRVKECLAKGT [H9V]	2.4
NQEITKAFFVRRTNRVKECLAKGT [H9F]	2.55
NQEITKAFLVRRTNRVKECLAKGT [H9L]	2.77
NQEITKAFAVRRTNRVKECLAKGT [H9A]	2.45
NQEITKAFYVRRTNRVKECLAKGT [H9Y]	3.2
NQEITKAFIVRRTNRVKECLAKGT [H9I]	3.08
NQEITKAFRVRRTNRVKECLAKGT [H9R]	2.87
NQEITKAFSVRRTNRVKECLAKGT [H9S]	2.98
NQEITKAFGVRRTNRVKECLAKGT [H9G]	4.27
